These results are taken from paper PMC8618838.

By stoichiometry N is commonly meant the number of molecules, sites or subunits per partner or assembly.

The target in this assay is wt HBc capsid like particles (Hepatitis B virus core protein) (Human Hepatitis B virus) (UniProt P03147). The assay is described as follows: cryo-EM structure.

In turn, “wt HBc capsid like particles (Hepatitis B virus core protein) (from UniProt P03147) (natural protein)” displayed a stoichiometry N of 240.
